The source of these data is PMC9800739, “Epigenetic drugs in somatostatin type 2 receptor radionuclide theranostics and radiation transcriptomics in mouse pheochromocytoma models” (Theranostics, 2023).

The subject of series [1] is MPC tumors. In kind it is in vivo, mouse. The following applies: mouse, in vivo. The protocol: (§1) During anesthesia, animals were continuously warmed at 37°C. […] Animals were sacrificed using CO2 inhalation and cervical dislocation.
(§2) 107 (30%), muscle (0%), kidneys (25%), and liver (35%).
(§3) 116 attenuation. Images were post-processed and analyzed using ROVER (ABX). Three-
118 kidneys (15%), and liver (25%). […]

The test system of series [2] is MTT tumors. Briefly: SPECT imaging of [177Lu]Lu-DOTA-TATE uptake in MTT allograft mice. The following applies: mouse, in vivo. The protocol:
as §1
(§4) Small animal single-photon emission computed tomography (SPECT) was initiated 22‒26 hours after radiotracer injection using the nanoSPECT/CT scanner (Mediso Medical Imaging Systems). […] Activity concentration in tissues was determined and reported as AV mean (VOI-averaged volume activity AV tissue 24h, MBq/mL). Details on quantitative SPECT image analysis are provided in Supplemental Information 1.5.
as §2, §3
(§5) 118 kidneys (15%), and liver (25%).
(§6) 119 1.6 Sstr2 promoter methylation analysis
(§7) 122 Bisulfite Kit (Qiagen, Hilden, Germany). Bisulfite-converted DNA was amplified using a
(§8) 125 Switzerland). Electropherograms were compared to PCR products amplified from bisulfite-
(§9) 127 an unmethylated 900bp-DNA fragment. The latter was generated by amplification of genomic
(§10) 129 of primers are provided in (Table S 2).

For series [3], the system named is MPC tumors. Briefly: SPECT imaging of [177Lu]Lu-DOTA-TATE uptake in MPC allograft mice. The following applies: mouse, in vivo. How it is done:
as §1, §4, §2, §3, §5, §6, §7
Amplicon size (195bp) was confirmed
as §8, §9, §10

The subject of series [4] is midgut neuroendocrine liver metastases. The following applies: after a short course of vorinostat; cited from earlier work.

SMILES strings stand for the structures.

As for `C[C@@H](O)[C@H](NC(=O)[C@@H]1CSSC[C@H](NC(=O)[C@@H](Cc2ccccc2)NC(=O)CN2CCN(CC(=O)O)CCN(CC(=O)O)CCN(CC(=O)O)CC2)C(=O)N[C@@H](Cc2ccc(O)cc2)C(=O)N[C@H](Cc2c[nH]c3ccccc23)C(=O)N[C@@H](CCCCN)C(=O)N[C@@H]([C@@H](C)O)C(=O)N1)C(=O)O` [[^64Cu]Cu-DOTA-TATE, metal not drawn], the “SUVmean plateau, MPC compared to MTT allografts” value in series [1] worked out at 14 fold.
Turning to `C[C@@H](O)[C@H](NC(=O)[C@@H]1CSSC[C@H](NC(=O)[C@@H](Cc2ccccc2)NC(=O)CN2CCN(CC(=O)O)CCN(CC(=O)O)CCN(CC(=O)O)CC2)C(=O)N[C@@H](Cc2ccc(O)cc2)C(=O)N[C@H](Cc2c[nH]c3ccccc23)C(=O)N[C@@H](CCCCN)C(=O)N[C@@H]([C@@H](C)O)C(=O)N1)C(=O)O` [[^177Lu]Lu-DOTA-TATE, metal not drawn], in series [2], the “AV max 24h tumor, sub-cohort” value was determined as 1.19 ± 0.10 MBq/mL and the “mean tumor AV 24 h (single animal shown in image)” value is reported as 0.59 MBq/mL. Besides, in series [3], the “AV max 24h tumor, sub-cohort” value is listed as 9.52 ± 0.58 MBq/mL; the “AV mean 24h, MPC compared to MTT allograft mice” value amounted to 8 fold; the “mean tumor AV 24 h (single animal shown in image)” value was found to be 4.14 MBq/mL.
On to `O=C(CCCCCCC(=O)Nc1ccccc1)NO` [vorinostat], for which, in series [4], the “increase in [68Ga]Ga-DOTA-TATE uptake in tumors” value was 10%.
